Laboratory results: patent publication US20020160403

B1: huBUB1 protein (plasmid p337-50) (protein)
chain: MDTPENVLQMLEAHMQSYKGNDPLGEWERYIQWVEENFPENKEYLITLLEHLMKEFLDKKKYHNDPRFISYCLKFAEYNSDLHQFFEFLYNHGIGTLSSPLYIAWAGHLEAQGELQHASAVLQRGIQNQAEPREFLQQQYRLFQTRLTETHLPAQARTSEPLHNVQVLNQMITSKSNPGNNMACISKNQGSELSGVISSACDKESNMERRVITISKSEYSVHSSLASKVDVEQVVMYCKEKLIRGESEFSFEELRAQKYNQRRKHEQWVNEDRHYMKRKEANAFEEQLLKQKMDELHKKLHQVVETSHEDLPASQERSEVNPARMGPSVGSQQELRAPCLPVTYQQTPVNMEKNPREAPPVVPPLANAISAALVSPATSQSIAPPVPLKAQTVTDSMFAVASKDAGCVNKSTHEFKPQSGAEIKEGCETHKVANTSSFHTTPNTSLGMVQATPSKVQPSPTVHTKEALGFIMNMFQAPTLPDISDDKDEWQSLDQNEDAFEAQFQKNVRSSGAWGVNKIISSLSSAFHVFEDGNKENYGLPQPKNKPTGARTFGERSVSRLPSKPKEEVPHAEEFLDDSTVWGIRCNKTLAPSPKSPGDFTSAAQLASTPFHKLPVESVHILEDKENVVAKQCTQATLDSCEENMVVPSRDGKFSPIQEKSPKQALSSHMYSASLLRLSQPAAGGVLTCEAELGVEACRLTDTDAAIAEDPPDAIAGLQAEWMQMSSLGTVDAPNFIVGNPWDDKLIFKLLSGLSKPVSSYPNTFEWQCKLPAIKPKTEFQLGSKLVYVHHLLGEGAFAQVYEATQGDLNDAKNKQKFVLKVQKPANPWEFYIGTQLMERLKPSMQHMFMKFYSAHLFQNGSVLVGELYSYGTLLNAINLYKNTPEKVMPQGLVISFAMRMLYMIEQVHDCEIIHGDIKPDNFILGNGFLEQDDEDDLSAGLALIDLGQSIDMKLFPKGTIFTAKCETSGFQCVEMLSNKPWNYQIDYFGVAATVYCMLFGTYMKVKNEGGECKPEGLFRRLPHLDMWNEFFHVMLNIPDCHHLPSLDLLRQKLKKVFQQHYTNKIRALRNRLIVLLLECKRSRK
B2: HA-huBUB1 (protein)
chain: B1 chain

Key:
[1] = biological target: PHAS-I
[2] = biological target: FLAG-huBUB3 protein fusion (plasmid p322-1)
FLAG-huBUB3 protein fusion (plasmid p322-1), sequence (chain, as listed by the source): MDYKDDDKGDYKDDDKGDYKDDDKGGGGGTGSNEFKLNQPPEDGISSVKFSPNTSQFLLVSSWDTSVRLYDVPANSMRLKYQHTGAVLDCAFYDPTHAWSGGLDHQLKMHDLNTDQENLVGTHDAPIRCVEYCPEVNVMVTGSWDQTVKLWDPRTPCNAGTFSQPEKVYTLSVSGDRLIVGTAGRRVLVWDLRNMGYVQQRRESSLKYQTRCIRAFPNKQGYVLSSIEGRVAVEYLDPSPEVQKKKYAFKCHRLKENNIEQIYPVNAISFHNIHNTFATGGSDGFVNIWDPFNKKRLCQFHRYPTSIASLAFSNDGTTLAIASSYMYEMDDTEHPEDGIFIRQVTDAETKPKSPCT

[3] = biological target: huBUB3 protein (untagged; expression plasmid p291-2, ~2.7 kb variant)
huBUB3 protein (untagged; expression plasmid p291-2, ~2.7 kb variant), sequence (chain, as listed by the source mutant): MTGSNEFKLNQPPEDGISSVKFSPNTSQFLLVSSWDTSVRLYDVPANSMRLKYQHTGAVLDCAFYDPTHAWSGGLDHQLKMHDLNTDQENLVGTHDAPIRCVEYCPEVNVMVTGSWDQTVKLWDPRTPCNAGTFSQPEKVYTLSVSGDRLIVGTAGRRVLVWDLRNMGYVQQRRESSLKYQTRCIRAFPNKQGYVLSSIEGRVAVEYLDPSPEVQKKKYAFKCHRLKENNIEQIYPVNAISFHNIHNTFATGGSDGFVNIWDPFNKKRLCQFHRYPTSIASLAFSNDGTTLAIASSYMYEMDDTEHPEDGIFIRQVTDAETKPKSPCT

| Protein | in vitro kinase activity towards test proteins [1] | phosphorylation in kinase reactions [2] | huBUB1 auto-phosphorylation [3] | phosphorylation in kinase reactions [3] |
| --- | --- | --- | --- | --- |
| B1 | identified PHAS-I as an in vitro substrate of the huBUB1 kinase |  |  |  |
| B2 |  | only HA-huBUB1 auto-phosphorylation was observed in kinase reactions containing these proteins | did not reproducibly stimulate or inhibit huBUB1 auto-phosphorylation | only HA-huBUB1 auto-phosphorylation was observed in kinase reactions containing these proteins |
